Source: paper PMC4259887

Legend:
[1] = target: E2s mutant Gln568 to Ala (Hepatitis E virus (HEV)) (UniProt Q81871); experiment: non-reducing SDS-PAGE; wild type E2s and its Ala mutants (expressed in E. coli) on non-reducing SDS-PAGE; dimer or monomer band
[2] = target: E2s, protruding homodimer domain of HEV capsid protein (wild type) (Hepatitis E virus (HEV)) (UniProt Q81871); experiment: as above
[3] = target: E2s mutant Gln531 to Ala (Hepatitis E virus (HEV)) (UniProt Q81871); experiment: as above
[4] = target: E2s mutant Pro604 to Ala (Hepatitis E virus (HEV)) (UniProt Q81871); experiment: as above
[5] = target: E2s mutant Ile529Ala (Hepatitis E virus (HEV)) (UniProt Q81871); experiment: as above
monoclonal antibody 8C11 = experiment: CLIA (chemiluminescent immunoassay); conditions: rE2-coated microplate; 8C11-HRP only; parent: est. 1.0e7; read off a plot
[6] = target: E2s mutant Thr489 to Ala (Hepatitis E virus (HEV)) (UniProt Q81871); experiment: non-reducing SDS-PAGE; wild type E2s and its Ala mutants (expressed in E. coli) on non-reducing SDS-PAGE; dimer or monomer band
[7] = target: E2s mutant Asn560Ala (Hepatitis E virus (HEV)) (UniProt Q81871); experiment: as above
[8] = target: E2s mutant Ser527 to Ala (Hepatitis E virus (HEV)) (UniProt Q81871); experiment: as above

E2s mutant Gln568 to Ala (from UniProt Q81871 455-603) (domain or fragment)
stoichiometry N [1]: 2

E2s, protruding homodimer domain of HEV capsid protein (wild type) (from UniProt Q81871 455-603) (domain or fragment)
stoichiometry N [2]: 2

E2s mutant Gln531 to Ala (from UniProt Q81871 455-603) (domain or fragment)
stoichiometry N [3]: 2

E2s mutant Pro604 to Ala (from UniProt Q81871 455-603) (domain or fragment)
stoichiometry N [4]: 2

E2s mutant Ile529Ala (from UniProt Q81871 455-603) (domain or fragment)
stoichiometry N [5]: 2

E2s, protruding homodimer domain of HEV capsid protein (wild type) (from UniProt Q81871) N560A
response (monoclonal antibody 8C11): 8.7e+06 RLU/s

E2s mutant Thr489 to Ala (from UniProt Q81871 455-603) (domain or fragment)
stoichiometry N [6]: 2

E2s mutant Asn560Ala (from UniProt Q81871 455-603) (domain or fragment)
stoichiometry N [7]: 2

E2s mutant Ser527 to Ala (from UniProt Q81871 455-603) (domain or fragment)
stoichiometry N [8]: 2

E2s, protruding homodimer domain of HEV capsid protein (wild type) (from UniProt Q81871) I529A
response (monoclonal antibody 8C11): 9.7e+06 RLU/s
